Reference: patent US20100191096A1, “PARAMAGNETIC BIOMOLECULE COMPLEXES AND USES THEREOF IN THE ASSESSMENT OF ORGAN FUNCTION” (priority 2007, published 2010)

What was measured:
renal cortex = test: T1 weighted MRI of rat kidneys after i.v. contrast agent (contrast enhancement in renal cortex); conditions: 20 minutes after 30 seconds in vivo i.v. infusion of 800 μl Ringer solution containing ~1 mg complex
Description: The MRI hardware used to obtain the date in the figures described below is a Pharmascan 7T small animal MR scanner (from Bruker Biospin MRI GmbH, Ettlingen, Germany). The software is Paravision version 4 (from Bruker Biospin MR GmbH). Dynamic imaging was performed using a Flash sequence, with 2 mm slice thickness, 256×256 matrix, field of view (FOV) 6 cm, TR15.576 ms, TE3.7 ms, 250 evolution cycles, scan time 12 mins 27 sec. T1 weighted imaging was performed using a Flash T1 sequence, with 2 mm slice thickness, 256×256 matrix, FOV 6 cm, TR15.57 ms, TE3.7 ms, 10 averages, scan time 30 secs. T2 weighted imaging was performed using a Turbo RARE T2 sequence, with 2 mm slice thickness, 256×256 matrix, FOV 6 cm, TR4200 ms, TE36 ms, 3 averages, scan time 6 mins 47 secs.

[1] = tested on: kidney (glomeruli, proximal tubular cells); conditions: cited from earlier work

Substance | contrast enhancement, T1 weighted MRI of coronal sections of rat kidneys (ex vivo) (renal cortex) | time at which breakdown products can be detected in plasma after i.v. injection ([1]; labelled aprotinin, i.v. injection) [min] | renal handling of native aprotinin (filtration, tubular uptake) ([1]; rat, in vivo)
Gd-DTPA-Lysozyme: Complex of chicken egg white lysozyme linked via DTPA chelator to Gadolinium, Example 2 standard protocol | selectively enhanced the contrast in the renal cortex |  | 
aprotinin |  | 20 | freely filtered in the glomeruli and quantitatively taken up into proximal tubular cells
